# According to patent publication US20130109846A1 (published 2013):
# Where a chain is given by its changes, count along the chain named.
# B1: 1h-99-2114 (other)
# VH: EVQLLESGGGLVQPGGSLRLSCAASGFTFKDKNMSWARQAPGKGLEWVSWIEAIGVQTFYADSVKGRFTISRDNSKNTLYLQMNSLRAEDTAVYYCAKSPFGPLYGFDYRGQGTLVTVSS
# B2: 1h-32 (other)
# VL: DIQMTQSPSSLSASVGDRVTITCRASQNIGHGLAWYQQKPGKAPKLLIYWVSLLQSGVPSRFSGSGSGTDFTLTISSLQPEDFATYYCQQTLSKPFTFGQGTKVEIKR
# B3: 1h-99-2115 (other)
# VH: B1 VH with A37V, I54P, K65R, K98R
# B4: 1h-99-2116 (other)
# VH: B1 VH with A37V, I54S
# B5: 1h-99-217 (other)
# VH: B1 VH with K30S, D31R, K32S, A37G, A53D, I54T, V56T
# B6: 1h-99-218 (other)
# VH: B1 VH with K30D, D31K, K32S, A53D, I54T, V56T
# B7: 1h-99-220 (other)
# VH: B1 VH with K30Y, D31R, K32S, A37V, A53D, I54T, V56T
# B8: 1h-33 (other)
# VL: DIQMTQSPSSLSASVGDRVTITCRASSNIHNRLNWYQQKPGKAPKLLIYAASSLQSGVPSRFSGSGSGTDFTLTISSLQPEDFATYYCRQWIQPPWTFGQGTKVEIKR
# B9: 1h-99-221 (other)
# VH: B1 VH with K30A, D31R, K32S, A37V, A53D, I54T, V56T
# B10: 1h-99-222 (other)
# VH: B1 VH with K30Q, D31R, K32S, A37V, A53D, I54T, V56T
# B11: 1h-99-224 (other)
# VH: B1 VH with K30S, D31H, K32N, A37V, A53D, I54T, V56T
# B12: 1h-99-225 (other)
# VH: B1 VH with K30R, D31L, K32Q, A37V, A53D, I54T, V56T
# B13: 1h-99-226 (other)
# VH: B1 VH with D31S, K32A, A37V, A53D, I54T, V56T
# B14: 1h-34 (other)
# VL: B2 VL with N28Y, H31T, G32S, W50H, V51S, L53G, S60L, L92A, S93L, K94R
# B15: 1h-99-227 (other)
# VH: B1 VH with K30N, D31H, K32A, A37V, A53D, I54T, V56T, S75Y
# B16: 1h-99-228 (other)
# VH: B1 VH with K30H, D31R, K32A, A37V, A53D, I54T, V56T, F107S
# B17: 1h-99-229 (other)
# VH: B1 VH with K30A, D31R, K32T, A53D, I54T, V56T
# B18: 1h-99-230 (other)
# VH: B1 VH with K30D, D31S, K32A, A37V, A53S
# B19: 1h-99-236 (other)
# VH: B1 VH with K30D, D31S, K32A, A37V, I54P, V56K, Q112R
# B20: 1h-35 (other)
# VL: DIQMTQSPSSLSASVGDRVTITCRASQYIGSALSWYQQKPGKAPKLLIYRASNLQSGVPSRFSGSGSGTDFTLTISSLQPEDFATYYCQQLAIRPFTFGQGTKVEIKR
# B21: 1h-99-241 (other)
# VH: B1 VH with K30D, D31S, K32A, A37V, A53N, I54N, V56P, N74D
# B22: 1h-99-243 (other)
# VH: B1 VH with K30D, D31S, K32A, A37G, I54S
# B23: 1h-99-245 (other)
# VH: B1 VH with K30D, D31S, K32A, I54S, V56F
# B24: 1h-99-246 (other)
# VH: B1 VH with K30D, D31S, K32A, I54S, V56G
# B25: 1h-99-249 (other)
# VH: B1 VH with K30D, D31S, K32A, A37V, A53D
# B26: 1h-99-250 (other)
# VH: B1 VH with K30D, D31S, K32A, I54T, V56G
# B27: 1h-99-254 (other)
# VH: B1 VH with K30D, D31S, K32A, A53S, I54S, V56G
# B28: 1h-99-256 (other)
# VH: B1 VH with K30D, D31S, K32A, A37V
# B29: 1h-35-2 (other)
# VL: B20 VL with S34G, N53H
# B30: 1h-99-260 (other)
# VH: B1 VH with K30D, D31S, K32A, I54N, V56P
# B31: 1h-99-262 (other)
# VH: B1 VH with K30Y, D31K, K32A, A37V, I54P, K65R, K98R
# Target: human CD28 (human, UniProt P10747 19-220)
# Test: cell-based or functional assay
Luciferase assay (EC50),MLR assay (EC50),Binder
0.004 µM,0.002 µM,B1
4.5 µM,,B2
0.003 µM,0.012 µM,B3
0.005 µM,0.004 µM,B4
0.012 µM,0.015 µM,B5
0.01 µM,0.012 µM,B6
0.01 µM,0.012 µM,B7
1.6 µM,,B8
0.012 µM,0.017 µM,B9
0.016 µM,0.028 µM,B10
0.015 µM,0.028 µM,B11
0.014 µM,0.028 µM,B12
0.01 µM,0.023 µM,B13
2.9 µM,,B14
0.018 µM,0.033 µM,B15
0.012 µM,0.046 µM,B16

Luciferase assay (EC50),MLR assay (EC50),Binder
0.015 µM,0.024 µM,B17
0.009 µM,0.014 µM,B18
0.021 µM,0.014 µM,B19
1.9 µM,2 µM,B20
0.017 µM,0.022 µM,B21
0.004 µM,0.008 µM,B22
0.006 µM,0.011 µM,B23
0.003 µM,0.008 µM,B24
0.006 µM,0.011 µM,B25
0.009 µM,0.008 µM,B26
0.011 µM,0.007 µM,B27
0.009 µM,0.007 µM,B28
0.279 µM,0.197 µM,B29
0.011 µM,0.013 µM,B30
0.006 µM,0.008 µM,B31
